This passage reports ratio to parent results from PMC10746786 (2023).

Experiment [1] has as its target PRRC2A. The experiment can be described thus: co-immunoprecipitation followed by mass spectrometry. To be noted: FLAG-tagged EIF4G2 transfected into HEK293T cells; corrected for EIF4G2 levels in IP; read off a plot.
In experiment [2] the target is PRRC2B. The description is as above. The following applies: FLAG-tagged EIF4G2 transfected into HEK293T cells; corrected for EIF4G2 levels in IP; read off a plot.

Turning to “FLAG-tagged EIF4G2 WT (from UniProt P78344) R178Q”, the ratio to parent in experiment [1] stood at 3; in experiment [2], 2.3.

Consider “FLAG-tagged EIF4G2 WT (from UniProt P78344) R165C”, for which, in experiment [1], the ratio to parent stood at 3.
